Source: patent publication US20220332846A1 (Innovent, published 2022)

Biological target: T1, PCSK-9 in human serum samples (human, UniProt Q8NBP7 31-692, limits assumed)
T1 construct: Endogenous PCSK-9 in clinical serum of human subjects, detected with a goat anti-human PCSK-9 polyclonal antibody; also called proprotein convertase subtilisin/kexin type 9; serum free PCSK-9
Experiment: ELISA, ADI-10087 coated on a microplate, serum PCSK-9 captured, detected with goat anti-human PCSK-9 polyclonal antibody
Procedure: A corresponding TMB substrate of HRP enzyme was then added, the color intensity of the TMB substrate was proportional to the content of PCSK-9, and the concentration of PCSK-9 in clinical serum could be detected by OD values at 450 nm or 620 nm using a microplate reader.

T1 sequence (Q8NBP7 31-692 limits assumed): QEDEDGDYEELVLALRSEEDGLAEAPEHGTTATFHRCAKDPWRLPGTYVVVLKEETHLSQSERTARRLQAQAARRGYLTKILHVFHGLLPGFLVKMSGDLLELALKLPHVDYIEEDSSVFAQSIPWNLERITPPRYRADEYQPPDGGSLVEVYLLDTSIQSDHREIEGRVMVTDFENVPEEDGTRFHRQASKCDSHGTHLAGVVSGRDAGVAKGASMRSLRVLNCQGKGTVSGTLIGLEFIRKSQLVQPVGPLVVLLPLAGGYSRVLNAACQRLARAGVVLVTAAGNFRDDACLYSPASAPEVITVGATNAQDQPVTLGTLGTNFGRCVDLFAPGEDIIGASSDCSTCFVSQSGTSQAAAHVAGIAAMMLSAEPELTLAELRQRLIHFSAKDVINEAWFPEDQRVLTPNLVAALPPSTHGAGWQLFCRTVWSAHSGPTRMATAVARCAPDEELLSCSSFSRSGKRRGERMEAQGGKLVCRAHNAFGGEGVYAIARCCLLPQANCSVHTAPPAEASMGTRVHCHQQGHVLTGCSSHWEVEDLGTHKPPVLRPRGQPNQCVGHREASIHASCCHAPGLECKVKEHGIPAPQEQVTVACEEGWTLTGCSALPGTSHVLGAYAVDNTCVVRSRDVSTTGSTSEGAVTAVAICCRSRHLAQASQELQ

binding result: binds
B1: ADI-10087 (antibody, V domains shown)
VH: QLQLQESGPGLVKPSETLSLTCTVSGGSISSASYYWSWIRQPPGKGLEWIGSINYRGSTYYNPSLKSRVTISVDTSKNQFSLKLSSVTAADTAVYYCARENSGVVPAAGPNWFGPWGQGTLVTVSS
VL: EIVLTQSPATLSLSPGERATLSCRASQSVSSYLAWYQQKPGQAPRLLIYDASNRATGIPARFSGSGSGTDFTLTISSLEPEDFAVYYCQQRRNWFTFGGGTKVEIKR
modifications: In Example 10 the antibody carries a ruthenium label, and in Example 9 biotin and ruthenium labels. The labelling sites are not stated and the letters do not carry them.
notes: The antibody was obtained from PCT/CN2017/118050; also called anti-PCSK9 antibody; test drug
